One substance from publication PMC2114503 can be followed below.

A word on the stoichiometry N: it is the number of molecules, sites or subunits per partner or assembly.

Assay in all cases: co-sedimentation
The target of assay [1] is rabbit skeletal muscle actin (rabbit) (UniProt P68135).
Assay [2] shares this target. This is another data set of the same source.
Assay [3] shares this target. The source holds these as a separate data set.
Assay [4] has the same target. This is another data set of the same source.
For assay [5] the target is unchanged. The following applies: scale: molecules of actin per molecule of the 30,000-D protein.

Like-named read-outs stand apart in the source and are kept apart here.

“Dictyostelium discoideum 30,000-D actin-binding protein (natural protein)”: the fraction of the 30,000-D protein co-sedimenting with actin came to 14% in assay [1], 99% in assay [2], 29% in assay [3] and 73% in assay [4]. In addition, the stoichiometry N came to 9.5 in assay [2] (scale: molecules of actin per molecule of the 30,000-D protein) and 10.3 in assay [5].
